Measured values from US20120064078.

Target: Thr90 phosphorylated Hsp90α (pT90-Hsp90α), recombinant human Hsp90α phosphorylated by recombinant protein kinase A

B1: recombinant human PP5 protein (protein phosphatase 5) (protein)
chain: MAMAEGERTECAEPPRDEPPADGALKRAEELKTQANDYFKAKDYENAIKFYSQAIELNPSNAIYYGNRSLAYLRTECYGYALGDATRAIELDKKYIKGYYRRAASNMALGKFRAALRDYETVVKVKPHDKDAKMKYQECNKIVKQKAFERAIAGDEHKRSVVDSLDIESMTIEDEYSGPKLEDGKVTISFMKELMQWYKDQKKLHRKCAYQILVQVKEVLSKLSTLVETTLKETEKITVCGDTHGQFYDLLNIFELNGLPSETNPYIFNGDFVDRGSFSVEVILTLFGFKLLYPDHFHLLRGNHETDNMNQIYGFEGEVKAKYTAQMYELFSEVFEWLPLAQCINGKVLIMHGGLFSEDGVTLDDIRKIERNRQPPDSGPMCDLLWSDPQPQNGRSISKRGVSCQFGPDVTKAFLEENNLDYIIRSHEVKAEGYEVAHGGRCVTVFSAPNYCDQMGNKASYIHLQGSDLRPQFHQFTAVPHPNVKPMAYANTLLQLGMM
release of free phosphate (non-radioactive serine/threonine phosphatase assay): the release of free phosphate was also significantly increased, P value<0.005
